We go through 8 sequences from the supplement of paper PMC11246515.

The data set is described as follows: total protein half-life in vivo (active degradation + dilution); higher = more stable protein.
[1] abbreviates: E. coli NCM3722 delta-clpP delta-lon delta-hslV, growth: N-lim chemostat, doubling time 6 h.
Where [2] appears, read: E. coli NCM3722 delta-clpP, growth: N-lim chemostat, doubling time 6 h.
The mark [3] stands for this setting: E. coli NCM3722 delta-hslV, growth: N-lim chemostat, doubling time 6 h.
The mark [4] stands for this setting: E. coli NCM3722 delta-lon, growth: N-lim chemostat, doubling time 6 h.
Setting [5] is: E. coli NCM3722 delta-smpB, growth: N-lim chemostat, doubling time 6 h.
The mark [6] stands for this setting: wild type E. coli NCM3722, growth: C-lim chemostat, doubling time 3 h.
[7] abbreviates: wild type E. coli NCM3722, growth: C-lim chemostat, doubling time 6 h.
Where [8] appears, read: wild type E. coli NCM3722, growth: C-lim chemostat, doubling time 12 h.
[9] abbreviates: wild type E. coli NCM3722, growth: N-lim chemostat, doubling time 6 h.
Where [10] appears, read: wild type E. coli NCM3722, growth: N-lim chemostat, doubling time 12 h.
Setting [11] is: wild type E. coli NCM3722, growth: P-lim chemostat, doubling time 6 h.
Setting [12] is: wild type E. coli NCM3722, growth: P-lim chemostat, doubling time 12 h.

± gives the standard deviation of the averaged measurements.

Take “MKRLIVGISGASGAIYGVRLLQVLRDVTDIETHLVMSQAARQTLSLETDFSLREVQALADVTHDARDIAASISSGSFQTLGMVILPCSIKTLSGIVHSYTDGLLTRAADVVLKERRPLVLCVRETPLHLGHLRLMTQAAEIGAVIMPPVPAFYHRPQSLDDVINQTVNRVLDQFAITLPEDLFARWQGA [P0AG03]”: the “total protein half-life in vivo” value by setting is: under setting [1], 5.38 ± 0.31 h; under setting [2], 4.35 ± 0.49 h; under setting [3], 4.3 ± 0.56 h; under setting [4], 4.77 ± 0.86 h; under setting [5], 4.678 ± 0.041 h; under setting [6], 3.22 ± 0.35 h. Besides, the “total protein half-life in vivo” value is 6.52 ± 0.94 h under setting [7]; 11.2 ± 1.5 h under setting [8]; 4.09 ± 0.35 h under setting [9]; 7.54 ± 1 h under setting [10]; 5.53 ± 0.22 h under setting [11]; 11.9 ± 0.56 h under setting [12].
Turning to “MKKVLLIILLLLVVLGIAAGVGVWKVRHLADSKLLIKEETIFTLKPGTGRLALGEQLYADKIINRPRVFQWLLRIEPDLSHFKAGTYRFTPQMTVREMLKLLESGKEAQFPLRLVEGMRLSDYLKQLREAPYIKHTLSDDKYATVAQALELENPEWIEGWFWPDTWMYTANTTDVALLKRAHKKMVKAVDSAWEGRADGLPYKDKNQLVTMASIIEKETAVASERDKVASVFINRLRIGMRLQTDPTVIYGMGERYNGKLSRADLETPTAYNTYTITGLPPGAIATPGADSLKAAAHPAKTPYLYFVADGKGGHTFNTNLASHNKSVQDYLKVLKEKNAQ”, the “total protein half-life in vivo” value is 6.33 ± 0.68 h under setting [1]; 6.52 ± 1.1 h under setting [2]; 6.8 ± 0.6 h under setting [3]; 6.58 ± 0.69 h under setting [4]; 6.22 ± 0.74 h under setting [5]; 3.49 ± 0.33 h under setting [6]. The “total protein half-life in vivo” value under setting [7] is 6.65 ± 0.64 h; the “total protein half-life in vivo” value under setting [8] came out at 12.7 ± 1.6 h; the “total protein half-life in vivo” value under setting [9] was 6.34 ± 0.68 h; the “total protein half-life in vivo” value under setting [10] came to 12.4 ± 1.7 h; the “total protein half-life in vivo” value under setting [11] turned out to be 6 ± 0.25 h; the “total protein half-life in vivo” value under setting [12] was 12 ± 0.45 h.
As for “MTLQQQIIKALGAKPQINAEEEIRRSVDFLKSYLQTYPFIKSLVLGISGGQDSTLAGKLCQMAINELRLETGNESLQFIAVRLPYGVQADEQDCQDAIAFIQPDRVLTVNIKGAVLASEQALREAGIELSDFVRGNEKARERMKAQYSIAGMTSGVVVGTDHAAEAITGFFTKYGDGGTDINPLYRLNKRQGKQLLAALACPEHLYKKAPTADLEDDRPSLPDEVALGVTYDNIDDYLEGKNVPQQVARTIENWYLKTEHKRRPPITVFDDFWKK”, the “total protein half-life in vivo” value by setting is: under setting [1], 4.93 ± 0.19 h; under setting [2], 5.28 ± 1.6 h; under setting [3], 4.91 ± 0.29 h; under setting [4], 5.15 ± 0.71 h; under setting [5], 4.58 ± 0.013 h; under setting [6], 3.37 ± 0.64 h. For the same sequence, the “total protein half-life in vivo” value came to 6.28 ± 0.098 h under setting [7]; 11.06 ± 0.038 h under setting [8]; 4.67 ± 0.63 h under setting [9]; 7.98 ± 0.17 h under setting [10]; 5.737 ± 0.042 h under setting [11]; 11.6 ± 0.31 h under setting [12].
“MMSLAWPLFRVTEQAALAAWPQTGCGDKNKIDGLAVTAMRQALNDVAFRGRVVIGEGEIDHAPMLWIGEEVGKGDGPEVDIAVDPIEGTRMVAMGQSNALAVMAFAPRDSLLHAPDMYMKKLVVNRLAAGAIDLSLPLTDNLRNVAKALGKPLDKLRMVTLDKPRLSAAIEEATQLGVKVFALPDGDVAASVLTCWQDNPYDVMYTIGGAPEGVISACAVKALGGDMQAELIDFCQAKGDYTENRQIAEQERKRCKAMGVDVNRVYSLDELVRGNDILFSATGVTGGELVNGIQQTANGVRTQTLLIGGADQTCNIIDSLH”: the “total protein half-life in vivo” value under setting [1] is 3.96 h.
Turning to “MLLSIITVAFRNLEGIVKTHASLAHLAQVEDISFEWIVVDGGSNDGTREYLENLNGIFNLRFVSEPDNGIYDAMNKGIAMAQGKFALFLNSGDIFHQNAANFVRKLKMQKDNVMITGDALLDFGDGHKIKRSAKPGWYIYHSLPASHQAIFFPVSGLKKWRYDLEYKVSSDYALAAKMYKAGYAFKKLNGLVSEFSMGGVSTTNNMELCADAKKVQRQILHVPGFWAELSWHLRQRTTSKTKALYNKV”, the “total protein half-life in vivo” value reads like this: under setting [1], 4.85 ± 0.28 h; under setting [4], 1.5 ± 0.23 h; under setting [5], 0.818 ± 0.0095 h.
“MTLTASSSSRAVTNSPVVVALDYHNRDDALAFVDKIDPRDCRLKVGKEMFTLFGPQFVRELQQRGFDIFLDLKFHDIPNTAAHAVAAAADLGVWMVNVHASGGARMMTAAREALVPFGKDAPLLIAVTVLTSMEASDLVDLGMTLSPADYAERLAALTQKCGLDGVVCSAQEAVRFKQVFGQEFKLVTPGIRPQGSEAGDQRRIMTPEQALSAGVDYMVIGRPVTQSVDPAQTLKAINASLQRSA”: the “total protein half-life in vivo” value by setting is: under setting [1], 5.11 ± 0.11 h; under setting [2], 6.25 ± 2.3 h; under setting [3], 4.479 ± 0.025 h; under setting [4], 5.08 ± 0.2 h; under setting [5], 4.77 ± 0.33 h; under setting [6], 2.89 ± 0.2 h. For the same sequence, the “total protein half-life in vivo” value reads like this: under setting [7], 6.45 ± 1 h; under setting [8], 9.6 ± 0.32 h; under setting [9], 4.77 ± 0.15 h; under setting [10], 8.44 ± 1.3 h; under setting [11], 5.08 ± 0.49 h; under setting [12], 10.2 ± 0.27 h.
Regarding “MSFDLIIKNGTVILENEARVVDIAVKGGKIAAIGQDLGDAKEVMDASGLVVSPGMVDAHTHISEPGRSHWEGYETGTRAAAKGGITTMIEMPLNQLPATVDRASIELKFDAAKGKLTIDAAQLGGLVSYNIDRLHELDEVGVVGFKCFVATCGDRGIDNDFRDVNDWQFFKGAQKLGELGQPVLVHCENALICDELGEEAKREGRVTAHDYVASRPVFTEVEAIRRVLYLAKVAGCRLHVCHVSSPEGVEEVTRARQEGQDVTCESCPHYFVLDTDQFEEIGTLAKCSPPIRDLENQKGMWEKLFNGEIDCLVSDHSPCPPEMKAGNIMKAWGGIAGLQSCMDVMFDEAVQKRGMSLPMFGKLMATNAADIFGLQQKGRIAPGKDADFVFIQPNSSYVLTNDDLEYRHKVSPYVGRTIGARITKTILRGDVIYDIEQGFPVAPKGQFILKHQQ”, the “total protein half-life in vivo” value reads like this: under setting [1], 4.05 h; under setting [4], 3.35 h; under setting [6], 1.23 ± 0.55 h; under setting [7], 2.5 ± 0.8 h; under setting [8], 2.38 ± 0.29 h; under setting [12], 5.33 h.
Consider “MTKTVSTSKKPRKQHSPEFRSEALKLAERIGVTAAARELSLYESQLYNWRSKQQNQQTSSERELEMSTEIARLKRQLAERDEELAILQKAATYFAKRLK [P0CF66]”, for which the “total protein half-life in vivo” value worked out at 3.53 h under setting [8] and 5.25 ± 0.29 h under setting [12].
